Where a chain is given by its changes, count along the chain named.
Assays:
[1] = target: T1, human serum amyloid P component (SAP), purified (Homo sapiens, UniProt P02743 20-223); experiment: ELISA, 1 ug/mL human SAP directly immobilised
T1 construct: Immobilised directly, amine-coupled, captured on O-phosphoethanolamine or by sheep polyclonal antibody, depending on the assay; also called human SAP; native human SAP
Protocol: (§1) 1 μg/mL human SAP was directly immobilised onto an ELISA plate and blocked with 1% BSA/TBS plus 0.05% TWEEN20. Anti-SAP antibodies from the test supernatants or purified material were titrated across the plate. Bound antibody was detected by treatment with goat anti-human Kappa Light Chains peroxidase conjugate (Sigma, A7164). The ELISA was developed using O-phenylenediamine dihydrochloride (OPD) peroxidase substrate (Sigma, P9187).

[2] = target: T1, human serum amyloid P component (SAP), …; experiment: Biacore, human SAP amine-coupled on CM3 chip, bivalent analyte model
Protocol: Human SAP was immobilised on a Biacore CM3 chip by primary amine coupling in accordance with the manufacturer's instructions. […] All runs were double referenced with a buffer injection over the human SAP surface. Analysis was carried out at 25° C. using HBS-EP buffer.

[3] = target: T1, human serum amyloid P component (SAP), …; experiment: Biacore, human SAP amine-coupled on C1 chip, culture supernatant, 1 to 1 dissociation model, single curve
Protocol: Human and cynomologus monkey SAP were immobilised on a Biacore C1 chip by primary amine coupling in accordance with the manufacturer's instructions. […] All runs were double referenced with a buffer injection for purified sample or media for the supernatant samples over the human and cyno SAP surfaces. Analysis was carried out at 25° C. using HBS-EP buffer. […] Data were analysed using the 1 to 1 dissociation model within the Biacore T100 evaluation software.
The values were based on a single curve and used for ranking purposes between the different constructs for binding to human SAP.

[4] = target: T1, human serum amyloid P component (SAP), …; experiment: direct ELISA, human SAP coated at 1 µg/mL, detection with goat anti-human kappa light chain peroxidase conjugate
Protocol: as §1

[5] = target: T1, human serum amyloid P component (SAP), …; experiment: binding ELISA and Biacore off-rate ranking
[6] = target: T1, human serum amyloid P component (SAP), …; experiment: Biacore kinetics, human SAP captured on immobilised O-phosphoethanolamine; alanine at position 91 of L0, not wild-type H3L0
Protocol: (§2) O-phosphoethanolamine was immobilised on a Biacore CM5 chip by primary amine coupling in accordance with the manufacturer's instructions. Human SAP was then captured on the surface in the presence of calcium chloride, in order to replicate in the Biacore system in vitro, the precise orientation of SAP molecules bound to amyloid fibrils in vivo. Anti SAP antibodies were then passed over this surface at 256, 64, 16, 4, 1 nM and a binding sensorgrams obtained. Analysis was carried out at 25° C. using 4% BSA, 10 mM Tris, 140 mM NaCl, 2 mM CaCl₂, 0.05% surfactant P20, 0.02% Na N₃, pH 8.0 as running buffer. […] Data generated were double referenced with a buffer injection over the human SAP surface and analyzed using the bivalent analyte model in the Biacore T100 evaluation software.

[7] = target: T1, human serum amyloid P component (SAP), …; experiment: direct ELISA, human SAP coated at 1 µg/mL, detection with HRP rabbit anti-mouse IgG
Protocol: (§3) 1 μg/mL or 5 μg/mL human SAP was directly immobilised onto an ELISA plate and blocked with 1% BSA/TBS plus 0.05% TWEEN20. Anti-SAP antibodies from purified material were titrated across the plate. Bound antibody was detected by treatment with a horse-radish peroxidase (HRP)-conjugated rabbit-anti-mouse IgG antibody (Dako, P0260). The ELISA was developed using O-phenylenediamine dihydrochloride (OPD) peroxidase substrate (Sigma, P9187).

[8] = target: T1, human serum amyloid P component (SAP), …; experiment: direct ELISA, human SAP coated at 5 µg/mL, detection with HRP rabbit anti-mouse IgG
Protocol: as §3

[9] = target: T1, human serum amyloid P component (SAP), …; experiment: Biacore (BIAcoreX), human SAP covalently immobilised on the chip; mean and SD of 3 replicates
[10] = target: T1, human serum amyloid P component (SAP), …; experiment: Biacore, human SAP captured on immobilised O-phosphoethanolamine (CM5 chip, calcium), bivalent analyte model
Protocol: as §2

[11] = target: T2, isolated pure human C-reactive protein (CRP) (human, UniProt P02741 19-224); experiment: western blot from SDS-PAGE
T2 construct: also called human CRP
T2 sequence (looked up): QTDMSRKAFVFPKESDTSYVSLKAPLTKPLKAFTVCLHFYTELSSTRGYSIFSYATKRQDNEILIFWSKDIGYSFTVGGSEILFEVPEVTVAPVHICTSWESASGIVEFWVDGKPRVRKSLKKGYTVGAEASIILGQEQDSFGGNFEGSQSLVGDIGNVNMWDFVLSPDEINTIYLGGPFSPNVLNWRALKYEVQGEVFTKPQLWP

[12] = target: T3, human SAP N-terminal 1-158-homoserine lactone polypeptide (CNBr cleavage fragment) (Homo sapiens, position 159 converted from methionine to homoserine lactone); experiment: western blot from SDS-PAGE
T3 construct: Tested in western blot from SDS-PAGE; also called approximately 20 kD fragment
T3 chain: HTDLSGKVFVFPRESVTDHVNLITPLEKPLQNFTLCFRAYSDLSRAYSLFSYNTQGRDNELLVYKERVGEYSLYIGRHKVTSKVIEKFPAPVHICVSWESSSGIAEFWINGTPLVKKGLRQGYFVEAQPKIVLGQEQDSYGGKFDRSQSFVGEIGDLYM

[13] = target: T4, human SAP 1-140 fragment (chymotrypsin digestion in the absence of calcium) (Homo sapiens); experiment: western blot from SDS-PAGE
T4 construct: Tested in western blot from SDS-PAGE; also called residue 1-140 fragment
T4 chain: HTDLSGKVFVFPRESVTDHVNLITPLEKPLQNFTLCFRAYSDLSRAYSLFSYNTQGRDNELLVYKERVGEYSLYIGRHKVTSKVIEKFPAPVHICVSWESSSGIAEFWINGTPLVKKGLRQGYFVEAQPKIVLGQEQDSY

[14] = target: T1, human serum amyloid P component (SAP), …; experiment: Biacore, human SAP captured on immobilised O-phosphoethanolamine (CM5 chip, calcium), bivalent analyte model; kd outside the Biacore measurement range
Protocol: as §2

[15] = target: T1, human serum amyloid P component (SAP), …; experiment: Biacore (BIAcoreX), human SAP covalently immobilised on the chip; mean and SD of 3 replicates; human SAP covalently immobilised on the chip; mean of 3 replicates
[16] = target: T1, human serum amyloid P component (SAP), …; experiment: competition ELISA, human SAP coated at 5 µg/mL, constant SAP-E chimera (cSAP-E) as competitor, bound chimera detected with goat anti-human kappa light chain peroxidase conjugate
From the text: A constant concentration of chimeric anti-SAP mAb was mixed with serial diluted (1:1) amounts of mouse anti-SAP mAbs. Plates were washed and the amount of chimeric antibody bound to the immobilised human SAP was detected using goat anti-human Kappa Light chain peroxidase conjugate (Sigma, A7164). The ELISA was developed using O-phenylenediamine dihydrochloride (OPD) peroxidase substrate (Sigma, P9187).

B1: SAP-K H1L0 humanised antibody (antibody, V domains shown)
VH: QVQLVQSGAEVKKPGSSVKVSCKASGYTFTSYWMHWVRQAPGQGLEWMGMIHPNSVNTNYNEKFKSRVTITADKSTSTAYMELSSLRSEDTAVYYCARRNDYYWYFDVWGQGTLVTVSS
VL: DIQMTQSPSSLSASVGDRVTITCKASQNVNSNVAWYQQKPGKAPKLLIYSASYRYSGVPSRFSGSGSGTDFTLTISSLQPEDFATYYCQQCNNYPFTFGQGTKLEIK
fold loss of human SAP binding activity compared to the SAP-K chimera [1]: ~2 fold
Kd [2]: 155 nM
koff [2]: 0.0178 s⁻¹
kon [2]: 115000 M⁻¹ s⁻¹
koff [3]: 0.0171 s⁻¹
EC50 (read off the curve) [4]: ~0.1 µg/mL

B2: SAP-K H1L1 humanised antibody (antibody, V domains shown)
VH: B1 VH
VL: B1 VL with L46A
koff [3]: 0.0296 s⁻¹

B3: SAP-K H3L1 humanised antibody (antibody, V domains shown)
VH: B1 VH with M48I, V68A, I70L, A72V
VL: B1 VL with L46A
koff [3]: 0.0236 s⁻¹

B4: SAP-K H2L0 humanised antibody (antibody, V domains shown)
VH: B1 VH with M48I, V68A
VL: B1 VL
fold loss of human SAP binding activity compared to the SAP-K chimera [1]: ~2 fold
Kd [2]: 191 nM
koff [2]: 0.022 s⁻¹
kon [2]: 115000 M⁻¹ s⁻¹
koff [3]: 0.0204 s⁻¹

B5: SAP-K H2L1 humanised antibody (antibody, V domains shown)
VH: B1 VH with M48I, V68A
VL: B1 VL with L46A
koff [3]: 0.0321 s⁻¹

B6: SAP-K H1 with L0 91A humanised light chain variant (antibody, human IgG1, V domains shown)
VH: B1 VH
VL: B1 VL with C91A
notes: Human IgG1/kappa; also called alanine variant paired with H1
binding result [5]: binds

B7: SAP-K H0L0 humanised antibody (antibody, V domains shown)
VH: B1 VH with Y27G, T30S
VL: B1 VL
fold loss of human SAP binding activity compared to the SAP-K chimera [1]: ~2 fold
Kd [2]: 739 nM
koff [2]: 0.0449 s⁻¹
kon [2]: 60800 M⁻¹ s⁻¹
koff [3]: 0.0263 s⁻¹

B8: SAP-K H3 with L0 91A humanised light chain variant (antibody, human IgG1, V domains shown)
VH: B1 VH with M48I, V68A, I70L, A72V
VL: B1 VL with C91A
notes: Human IgG1/kappa; also called variant with alanine at position 91
Kd [6]: 0.436 nM

B9: SAP-K mouse monoclonal anti-human SAP antibody (antibody, mouse IgG2a, V domains shown)
VH: QVQLQQPGAELIKPGASVKLSCKASGYTFTSYWMHWVKQRPGQGLEWIGMIHPNSVNTNYNEKFKSKATLTVDKSSSTAYMQLNSLTSEDSAVYYCARRNDYYWYFDVWGTGTTVTVSS
VL: DIVMTQSQKFMSTSVGDRVSVTCKASQNVNSNVAWYQQKPGQSPKALIYSASYRYSGVPDRFTGSGSGTDFTLTITNVQSEDLAEYFCQQCNNYPFTFGSGTKLEIK
notes: also called Mouse SAP-K; murine SAP-K
EC50 (read off the curve) [7]: ~0.04 µg/mL
EC50 (read off the curve) [8]: ~0.02 µg/mL
Kd [9]: 1 nM
koff [9]: 1.7e-05 s⁻¹
kon [9]: 31800 M⁻¹ s⁻¹
Kd [10]: 0.73 nM
koff [10]: 0.000219 s⁻¹
kon [10]: 300000 M⁻¹ s⁻¹

B10: SAP-E mouse monoclonal anti-human SAP antibody (antibody, mouse IgG2a, V domains shown)
VH: QASLQQSGTELVRSGASVKMSCKASGFTFATYNMHWIKQTPGQGLEWIGYIYPGDGNANYNQQFKGKATLTADTSSNTAYMQISSLTSEDSAVYFCARGDFDYDGGYYFDSWGQGTTLTVSS
VL: DIQMTQSPASLSASVGETVTITCRASENIYSYLAWYQQKQGRSPQLLVHNAKTLAEGVPSRVSGSGSGTHFSLKINGLQPEDFGNYYCQHHYGAPLTFGAGTKLELK
notes: also called Mouse SAP-E; murine SAP-E
binding result [11]: no binding (tested: 500 ng and 100 ng loaded)
binding result [12]: binds
binding result [13]: binds
EC50 (read off the curve) [8]: ~0.04 µg/mL
Kd [9]: 5 nM
koff [9]: 6e-05 s⁻¹
kon [10]: 31500 M⁻¹ s⁻¹
koff [14]: < 1e-05 s⁻¹
kon [15]: 20000 M⁻¹ s⁻¹
IC50 (read off the curve) [16]: ~2 µg/mL
